Bridge positions count the residues as written; N and C are the ends. Square brackets hold non-standard residues; d marks the D form. dPhe(3-Cl) = N[C@H](Cc1cccc(Cl)c1)C(=O)O; dPhe(4-Cl) = N[C@H](Cc1ccc(Cl)cc1)C(=O)O; dPhe(4-Me) = Cc1ccc(C[C@@H](N)C(=O)O)cc1; dPhe(2-Cl) = N[C@H](Cc1ccccc1Cl)C(=O)O; dPhe(4-F) = N[C@H](Cc1ccc(F)cc1)C(=O)O; dPhe(2-F) = N[C@H](Cc1ccccc1F)C(=O)O; Nle = CCCC[C@H](N)C(=O)O; Orn = NCCC[C@H](N)C(=O)O; Dab = NCC[C@H](N)C(=O)O; Dap = NC[C@H](N)C(=O)O
Legend:
[1] = target: recombinant human melanocortin-4 receptor hMCR-4 (human) (UniProt P32245); assay: competition with [I125]-NDP-α-MSH; HEK-293 hMCR-4 membrane homogenates
[2] = target: recombinant human melanocortin-1 receptor hMCR-1a (human) (UniProt Q01726); assay: competition with [I125]-NDP-α-MSH; HEK-293 hMCR-1a membrane homogenates
recombinant human melanocortin-1 receptor hMCR-1a (human), sequence (Q01726 whole entry): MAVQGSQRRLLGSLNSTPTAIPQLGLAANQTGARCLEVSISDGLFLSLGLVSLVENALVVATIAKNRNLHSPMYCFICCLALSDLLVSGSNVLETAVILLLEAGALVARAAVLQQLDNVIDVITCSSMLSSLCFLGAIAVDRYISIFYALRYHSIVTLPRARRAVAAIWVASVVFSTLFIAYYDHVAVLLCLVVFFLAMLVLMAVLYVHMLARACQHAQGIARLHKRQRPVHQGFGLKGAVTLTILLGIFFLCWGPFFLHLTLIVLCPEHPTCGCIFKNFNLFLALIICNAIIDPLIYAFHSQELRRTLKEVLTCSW

recombinant human melanocortin-4 receptor hMCR-4 (human), sequence (P32245 whole entry): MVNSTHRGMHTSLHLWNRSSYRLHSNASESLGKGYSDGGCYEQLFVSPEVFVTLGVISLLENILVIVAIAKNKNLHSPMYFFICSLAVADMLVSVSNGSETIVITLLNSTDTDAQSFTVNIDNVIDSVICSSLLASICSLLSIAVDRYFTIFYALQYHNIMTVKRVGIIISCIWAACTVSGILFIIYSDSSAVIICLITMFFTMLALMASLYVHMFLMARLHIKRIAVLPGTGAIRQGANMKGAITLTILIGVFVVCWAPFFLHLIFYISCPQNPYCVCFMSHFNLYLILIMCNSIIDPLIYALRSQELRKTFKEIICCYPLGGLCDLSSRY

| Substance | Ki [1] [nM] | Ki [2] [nM] |
| --- | --- | --- |
| Ac-[Nle]EH[dF]R[Dab]K-NH2 (lactam 2-6) | 7380 | 2 |
| Ac-Nle-cyclo(Glu-His-D-Phe-Arg-Dab)-Nal 2-NH2 (peptide) | 3 | 0.01 |
| Ac-Nle-cyclo(Glu-His-D-Phe-Arg-Dab)-Nal 2-NH2 (SEQ ID NO: 14) (peptide) | 0.095 | 0.02 |
| Ac-Nle-cyclo(Dap-His-D-Phe-Arg-Dap)-Trp-NH2 with bridge C(═O)-(CH2)2-C(═O) (peptide) | 680 | 0.03 |
| Ac-Nle-cyclo(Glu-Arg-D-Phe-Arg-Dab)-Trp-NH2 (SEQ ID NO: 53) (peptide) | 20 |  |
| Ac-[Nle]EH[dF]A[Dab]-NH2 (lactam 2-6) | 10000 | 645 |
| Ac-[Nle]EP[dF]R[Dab]W-NH2 (lactam 2-6) | 185 | 3 |
| Ac-Nle-cyclo(Glu-Ala-D-Phe-Arg-Dab)-Trp-NH2 (peptide) | 455 |  |
| Ac-Nle-cyclo(Dab-His-D-Phe-Arg-Dap)-Trp-NH2 with bridge C(═O)-(CH2)2-C(═O) (peptide) | 325 | 0.025 |
| Ac-Nle-cyclo(Glu-His-D-Phe-Arg-Dab)-D-Trp-NH2 (peptide) | 33 | 0.55 |
| Ac-Nle-cyclo(Dab-His-D-Phe-Arg-Dab)-Trp-NH2 with bridge C(═O)-(CH2)2-C(═O) (peptide) | 380 | 0.015 |
| Ac-[Nle]E[Orn][dPhe(2-F)]R[Dab]-NH2 (lactam 2-6) | 10000 | 18 |
| Ac-Nle-cyclo(Glu-Cit-D-Phe-Arg-Dab)-Trp-NH2 (peptide) | 98 | 0.45 |
| Ac-[Nle]EH[dF]R[Dab]A-NH2 (lactam 2-6) | 7480 | 2 |
| Ac-Nle-cyclo(Glu-Lys-D-Phe-Arg-Dab)-Trp-NH2 (SEQ ID NO: 56) (peptide) | 95 |  |
| Ac-Nle-cyclo(Glu-His-D-Phe-Arg-Dap)-Trp-NH2 (peptide) | 358 |  |
| Ac-[Nle]EH[dF]R[Dab]-NH2 (lactam 2-6; SEQ ID NO: 47) | 10000 | 7 |
| Ac-Nle-cyclo(Glu-Orn-D-Phe-Arg-Dab)-Trp-NH2 (peptide) | 45 | 0.015 |
| Ac-Nle-cyclo(Glu-Pro-D-Phe-Arg-Dab)-NH2 (peptide) | 10000 | 2250 |
| Ac-[Nle]E[Orn][dPhe(3-Cl)]R[Dab]-NH2 (lactam 2-6) | 10000 | 35 |
| Ac-Nle-cyclo(Glu-Ala-D-Phe-Arg-Dab)-Trp-NH2 (SEQ ID NO: 52) (peptide) | 455 |  |
| Ac-Nle-cyclo(Glu-Dab-D-Phe-Arg-Dab)-Trp-NH2 (peptide) | 98 | 0.05 |
| Ac-[Nle]DH[dF]R[Dap]W-NH2 (lactam 2-6) | 1320 | 2 |
| Ac-Nle-cyclo(Glu-His-D-Phe-Arg-Orn)-Trp-NH2 (peptide) | 295 |  |

| Substance | Ki [1] [nM] | Ki [2] [nM] |
| --- | --- | --- |
| Ac-Nle-cyclo(Glu-Orn-D-Phe(3,4-F)-Arg-Dab)-NH2 (peptide) | 10000 | 40 |
| Ac-Nle-cyclo(Glu-Cit-D-Phe-Arg-Dab)-Trp-NH2 (SEQ ID NO: 54) (peptide) | 98 | 0.45 |
| Ac-[Nle]EH[dF]R[Dab]-NH2 (lactam 2-6) | 10000 | 7 |
| Ac-Nle-cyclo(Glu-His-D-Phe-Arg-Dab)-D-Nal 1-NH2 (peptide) | 2 | 0.1 |
| Ac-Nle-cyclo(Glu-His-D-Phe-Arg-Dab)-Trp-OH (peptide) | 10000 | 2 |
| Ac-[Nle]E[Orn][dPhe(4-Me)]R[Dab]-NH2 (lactam 2-6) | 10000 | 3 |
| Ac-[Nle]EH[dF]G[Dab]W-NH2 (lactam 2-6) | 10000 | 9 |
| Ac-Nle-cyclo(Glu-Orn-D-Phe-Arg-Dab)-Trp-NH2 (SEQ ID NO: 58) (peptide) | 45 | 0.015 |
| Ac-Nle-cyclo(Glu-Orn-D-Phe(4-OMe)-Arg-Dab)-NH2 (peptide) | 10000 | 2 |
| Ac-Nle-cyclo(Glu-His-D-Phe-Arg-Dab)-Nal 1-NH2 (peptide) | 0.75 | 0.005 |
| Ac-Nle-cyclo(Glu-Lys-D-Phe-Arg-Dab)-Trp-NH2 (peptide) | 95 |  |
| Ac-[Nle]EH[dF][Dab]-NH2 (lactam 2-5) | 10000 | 10000 |
| Ac-Nle-cyclo(Glu-His-D-Phe-Arg-Dap)-Trp-OH (peptide) | 4700 | 1 |
| Ac-Nle-cyclo(Glu-His-D-Phe-Arg-Dab)-Trp-NH2 (peptide) | 110 |  |
| Ac-[Nle]E[Orn][dPhe(2-Cl)]R[Dab]-NH2 (lactam 2-6) | 10000 | 30 |
| Ac-D-Phe-cyclo(Glu-His-D-Phe-Arg-Dab)-Trp-NH2 (peptide) | 535 |  |
| Ac-[Nle]E[Orn][dF]R[Dab]-NH2 (lactam 2-6) | 3620 | 4 |
| Ac-Nle-cyclo(Glu-Arg-D-Phe-Arg-Dab)-Trp-NH2 (peptide) | 20 |  |
| Ac-[Nle]EH[dF]A[Dab]W-NH2 (lactam 2-6) | 10000 |  |
| Ac-[Nle]E[Orn][dPhe(4-F)]R[Dab]-NH2 (lactam 2-6) | 10000 | 20 |
| Ac-Nle-cyclo(Glu-Dab-D-Phe-Arg-Dab)-Trp-NH2 (SEQ ID NO: 57) (peptide) | 98 | 0.05 |
| Ac-[Nle]E[Orn][dPhe(4-Cl)]R[Dab]-NH2 (lactam 2-6) | 1240 | 2 |
| Ac-[Nle]EH[dF]A[Dab]-NH2 (lactam 2-6; SEQ ID NO: 48) | 10000 | 645 |
| Ac-Nle-cyclo(Dap-His-D-Phe-Arg-Dab)-Trp-NH2 with bridge C(═O)-(CH2)2-C(═O) (peptide) | 860 | 0.065 |

From patent publication US20120225828A1
